Experimental data taken from patent US20240166745A1 (Eli Lilly, published 2024).

T1: Cynomolgus LAG-3-ECD (cynomolgus)
T1 construct: as printed it starts with the N-terminal leader (MWEAQ...) and ends with a His tag; also called Cynomolgus LAG-3 ECD-His
T1 chain: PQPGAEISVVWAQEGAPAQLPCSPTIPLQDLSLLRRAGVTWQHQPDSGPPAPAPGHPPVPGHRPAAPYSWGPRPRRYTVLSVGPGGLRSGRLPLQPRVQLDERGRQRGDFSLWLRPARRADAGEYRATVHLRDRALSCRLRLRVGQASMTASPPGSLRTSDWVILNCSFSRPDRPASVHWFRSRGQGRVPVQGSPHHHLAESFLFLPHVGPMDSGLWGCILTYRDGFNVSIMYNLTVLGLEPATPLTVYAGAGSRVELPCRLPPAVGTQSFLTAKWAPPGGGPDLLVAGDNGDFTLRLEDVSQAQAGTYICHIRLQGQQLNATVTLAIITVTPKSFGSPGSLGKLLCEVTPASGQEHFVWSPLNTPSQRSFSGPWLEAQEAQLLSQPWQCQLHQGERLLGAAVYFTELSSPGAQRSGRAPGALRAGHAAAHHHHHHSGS

T2: Human LAG-3 ECD-His (human, UniProt P18627 23-449)
T2 construct: Soluble analyte in SPR; the entry includes linker and His tag; also called human LAG-3-His
T2 sequence: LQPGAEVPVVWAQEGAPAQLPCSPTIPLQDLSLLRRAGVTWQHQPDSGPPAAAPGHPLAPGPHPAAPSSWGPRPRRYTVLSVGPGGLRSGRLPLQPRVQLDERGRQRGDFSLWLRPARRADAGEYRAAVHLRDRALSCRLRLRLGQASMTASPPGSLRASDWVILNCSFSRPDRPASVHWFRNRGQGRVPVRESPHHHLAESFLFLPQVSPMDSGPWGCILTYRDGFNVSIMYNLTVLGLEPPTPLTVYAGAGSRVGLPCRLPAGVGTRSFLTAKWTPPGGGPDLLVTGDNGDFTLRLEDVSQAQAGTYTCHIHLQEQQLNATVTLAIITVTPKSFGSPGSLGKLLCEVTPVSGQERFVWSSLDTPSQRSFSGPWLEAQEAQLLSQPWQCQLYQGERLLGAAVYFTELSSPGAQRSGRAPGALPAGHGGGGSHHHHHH


Tests used:
[1] = biological target: PathHunter U2OS PD-1/LAG-3 dimerization cell line (human PD-1 aa 1-199-EA and human LAG-3 aa 1-477-PK) (human); assay: cell-based or functional assay
Sequence of PathHunter U2OS PD-1/LAG-3 dimerization cell line (human PD-1 aa 1-199-EA and human LAG-3 aa 1-477-PK) (human) (Q15116 1-199, chain 1 of 2): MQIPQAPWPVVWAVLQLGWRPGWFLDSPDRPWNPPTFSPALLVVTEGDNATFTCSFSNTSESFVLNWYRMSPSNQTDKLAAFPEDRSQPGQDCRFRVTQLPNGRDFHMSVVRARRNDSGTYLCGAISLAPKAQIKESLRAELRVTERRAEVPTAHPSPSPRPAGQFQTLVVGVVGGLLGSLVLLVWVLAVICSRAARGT
Sequence of PathHunter U2OS PD-1/LAG-3 dimerization cell line (human PD-1 aa 1-199-EA and human LAG-3 aa 1-477-PK) (human) (P18627 1-477, chain 2 of 2, further chain): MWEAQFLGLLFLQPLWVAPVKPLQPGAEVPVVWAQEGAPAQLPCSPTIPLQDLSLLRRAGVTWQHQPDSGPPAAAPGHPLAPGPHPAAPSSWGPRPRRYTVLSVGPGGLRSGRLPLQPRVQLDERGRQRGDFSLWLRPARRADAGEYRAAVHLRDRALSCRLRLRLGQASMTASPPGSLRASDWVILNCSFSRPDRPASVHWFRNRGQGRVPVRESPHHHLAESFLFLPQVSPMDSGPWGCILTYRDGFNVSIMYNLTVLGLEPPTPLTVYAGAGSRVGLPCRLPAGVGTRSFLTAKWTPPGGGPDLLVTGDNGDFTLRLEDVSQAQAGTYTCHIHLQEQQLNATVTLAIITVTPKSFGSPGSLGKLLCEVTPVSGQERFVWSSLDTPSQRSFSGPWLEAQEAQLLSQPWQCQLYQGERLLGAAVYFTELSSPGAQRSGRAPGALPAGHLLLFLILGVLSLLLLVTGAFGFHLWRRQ

[2] = biological target: T3, cell membrane-expressed cynomolgus LAG-3/PD-1 (cynomolgus); assay: flow cytometry, labeled antibody on anti-CD3 activated cynomolgus PBMC, CD4 T cells, percent of cells bound (mean +/- SEM, n=3)
T3 construct: whole, on cells; Two separate membrane proteins on the same cells, not a complex; also called Cyno CD4
T3 sequence (P79185 26-458): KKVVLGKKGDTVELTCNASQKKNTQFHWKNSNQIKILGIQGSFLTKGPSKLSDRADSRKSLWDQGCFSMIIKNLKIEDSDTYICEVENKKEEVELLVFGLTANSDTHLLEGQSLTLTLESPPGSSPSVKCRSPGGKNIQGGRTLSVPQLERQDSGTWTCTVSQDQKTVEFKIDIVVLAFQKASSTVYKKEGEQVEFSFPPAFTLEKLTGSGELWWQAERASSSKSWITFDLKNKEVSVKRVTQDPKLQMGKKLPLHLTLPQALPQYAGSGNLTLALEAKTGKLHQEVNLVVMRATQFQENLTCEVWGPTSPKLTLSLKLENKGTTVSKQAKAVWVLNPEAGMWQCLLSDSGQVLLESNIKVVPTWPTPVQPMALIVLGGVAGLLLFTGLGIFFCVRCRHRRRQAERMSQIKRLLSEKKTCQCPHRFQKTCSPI
Experimental: (§1) Cells were incubated with 10-12 point, 3-fold serial dilutions of the respective labeled antibody (Invitrogen #S20026, Invitrogen #C20029), starting at 30 ug/mL, in PBS+2% FCS for 30 minutes at 4° C. and containing the following: CD4 eBioscience #12-0047-42 or Biolegend #344634; CD8 eBioscience #25-0088-42; CD3 eBioscience 56-0038-82 for human cells and BD #557917 for cyno cells; CD33 eBioscience 45-0338-42 for human cells; Live/Dead eBioscience #65-0865-18. After washing thoroughly, cells were processed on a BD Fortessa or Fortessa X20 cytometer, and data were analyzed with Flowjo software (BD Biosciences). Percent of cells bound by the respective antibody is quantified and graphed with Prism (Graphpad, San Diego, CA).

[3] = biological target: T4, cell membrane-expressed human LAG-3/PD-1 (human, UniProt P18627 23-525; Q15116 25-288); assay: flow cytometry, labeled antibody on anti-CD3 activated human PBMC, CD8 T cells, percent of cells bound (mean +/- SEM, n=3)
T4 construct: also called Human CD4
T4 sequence (Q15116 25-288 limits assumed, one chain of several): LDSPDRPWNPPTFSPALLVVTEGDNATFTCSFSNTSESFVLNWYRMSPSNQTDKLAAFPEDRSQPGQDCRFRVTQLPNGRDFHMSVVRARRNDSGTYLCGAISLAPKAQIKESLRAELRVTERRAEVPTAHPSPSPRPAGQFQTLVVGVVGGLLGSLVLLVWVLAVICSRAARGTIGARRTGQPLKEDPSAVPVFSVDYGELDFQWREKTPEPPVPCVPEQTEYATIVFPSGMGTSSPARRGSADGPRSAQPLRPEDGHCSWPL
Experimental: as §1

Cynomolgus LAG-3-ECD = biological target: T1, Cynomolgus LAG-3-ECD; assay: SPR (Biacore T200), antibody captured on PrismA chip, ECD as analyte, 37° C.
Experimental: A Biacore® T200 (Cytiva, Marlborough, MA) was used to measure the binding kinetics and affinities of the LAG-3 antibody to the LAG-3 soluble extracellular domain (ECD) and the bispecific antibody to soluble LAG-3-ECD and PD-1-ECD (human: Sino Biologicals, Cat #10377-H08H; cynomolgus: Sino Biologicals, Cat #90311-C08H) by surface plasmon resonance. Samples were diluted in HBS-EP+ (10 mM Hepes, 150 mM NaCl, 3 mM EDTA, 0.05% Tween-20, pH 7.6) (Teknova Cat #H8022) with 5 g/L of BSA (Jackson ImmunoResearch Cat #001-000-161) running buffer. PrismA Series S Sensor chip (Cat #29650263) is purchased from Cytiva.
Binding was evaluated using multi-cycle kinetics by an antibody capture method. Each cycle was performed at either 37° C. or 25° C. at a flow rate of 10 μL/min for antibody capture to the PrismA chip and 100 μL/min for analyte association (with 120 sec contact time) and dissociation (900 sec). Each cycle consisted of the following steps: injection of bispecific antibody at 1 μg/mL in HBS-EP+ targeting Rmax values of 125 RU (LAG-3 arm), 294 RU (PD-1 arm) and 63 RU (LAG-3 antibody) on flow cell, injection of analyte in HBS-EP+(concentration range of 62.5 nM to 0.25 nM by two-fold serial dilution for both human PD-1-ECD-His (SEQ ID NO: 40) and human LAG-3-His (SEQ ID NO: 42) followed by 900-second dissociation phase, and regeneration using 10 μL of 10 mM glycine hydrochloride, pH 1.5 over a 60-second contact time utilizing a 10 μL/min flow rate. All analyte concentrations were determined utilizing monomeric molecular weight (MW) values. Association rates (kₒₙ) and dissociation rates (koff) for LAG-3-ECD and PD-1-ECD were evaluated using double referencing by flow-cell one reference subtraction in addition to 0 nM blank subtraction and fit to “1:1 (Langmuir) binding” model in the BIAevaluation software version 4.1. The dissociation constant (KD) was calculated from the binding kinetics according to the relationship KD=Koff/Kₒₙ. Stoichiometry=[RUₘₐₓ/RUcaptured]/[MWanalyte/MWantibody] where MWAntibodyA is 150 kDa. Values are reported as mean±standard deviation.

Human LAG-3 ECD-His = biological target: T2, Human LAG-3 ECD-His; assay: SPR (Biacore T200), antibody captured on PrismA chip, ECD as analyte, 37° C., steady-state equilibrium model (SS); 37° C., steady-state equilibrium model
[4] = biological target: T4, cell membrane-expressed human LAG-3/PD-1; assay: flow cytometry, labeled antibody on anti-CD3 activated human PBMC, CD4 T cells, percent of cells bound (mean +/- SEM, n=3)
Experimental: as §1

EC50 for induction of PD-1 and LAG-3 dimerization (enzyme fragment complementation, luminescence) [1] [nM] | EC50 [2] [µg/mL] | EC50 [3] [µg/mL] | Kd (Cynomolgus LAG-3-ECD) [nM] | koff (Cynomolgus LAG-3-ECD) [s⁻¹] | kon (Cynomolgus LAG-3-ECD) [M⁻¹ s⁻¹] | Kd (Human LAG-3 ECD-His) [nM] | EC50 [4] [µg/mL] | Binder
2.97 | 0.0293 | 0.0068 | 0.51 | 0.01 | 2e+07 | 5.7 | 0.0357 | Antibody A (bispecific antibody, human IgG1, kappa, lambda, IgG-like bispecific with one LAG-3 arm and one PD-1 arm; also called human LAG-3/human PD-1 dual agonist bispecific antibody) heavy 1: not shown light 1: DIVMTQTPLSLPVTPGEPASISCRSSQSLLDSAEGSTYLDWFLRKPGDSPQLLIYTLSYRASGVPDRFSGSGSGTDFTLKISRVEAEDVGVYYCMQRVEFPYTFGQGTKVEIKRTVAAPSVFIFPPSKEQLKSGTASVVCLLNNFYPREAKVQWKVDNALQSGNSQESVTEQDSKDSTYSLSSTLTLSKADYEKHKVYACEVTHQGLSSPVTKSFNRGEC heavy 2: QVQLVQSGAEVKKPGASVKVSCKVSGYSLSKYDMSWVRKAPGKGLEWMGIIYTSGYTDYAQEFQGRVTMTEDTSTDTAYMELSSLRSEDTAVYYCATGNPYYTNGFNSWGQGTLVTVSSASTKGPSVFPLAPSSKSTSGGTAALGCLVKDYFPEPVTVSWNSGALTSGVATGPAVLQSSGLYSLSSVVTVPSSSLGTQTYICNVNHKPSNTKVDKRVEPKSCDKTHTCPPCPAPELLGGPSVFLFPPKPKDTLMISRTPEVTCVVVDVSHEDPEVKFNWYVDGVEVHNAKTKPREEQYNSTYRVVSVLTVLHQDWLNGKEYKCKVSNKALPAPIEKTISKAKGQPREPQVYTLPPSREEMTDNQVSLTCLVKGFYPSDIAVEWESNGQPENNYKTTPPVLMSDGSFFLASKLTVDKSRWQQGNVFSCSVMHEALHNHYTQKSLSLSPGK light 2: RIQMTQSPSSLSASVGDRVTITCQASQSPNNLLAWYQDKPGKAPKLLIYGASDLPSGVPSRFSGSGSGTDFTLTISSLQPEDFATYYCQNNYYVGPVSYAFGGGTKVEIKGQPKAAPSVTLFPPSSEELQANKATLVCYISDFYPGAVTVAWKADSSPVKAGVETTTPSKQSNNKYAAWSYLSLTPEQWKSHRSYSCQVTHEGSTVEKTVAPTEC
2.47 | 0.0337 | 0.0077 | 0.48 | 0.0098 | 2e+07 |  | 0.0423 | Antibody B (bispecific antibody, human IgG1, kappa, lambda, also called human LAG-3/human PD-1 dual agonist bispecific antibody) heavy 1: not shown light 1: DIVMTQTPLSLPVTPGEPASISCRSSQSLLDSAEGSTYLDWFLRKPGDSPQLLIYTLSYRASGVPDRFSGSGSGTDFTLKISRVEAEDVGVYYCMQRVEFPYTFGQGTKVEIKRTVAAPSVFIFPPSKEQLKSGTASVVCLLNNFYPREAKVQWKVDNALQSGNSQESVTEQDSKDSTYSLSSTLTLSKADYEKHKVYACEVTHQGLSSPVTKSFNRGEC heavy 2: QVQLVQSGAEVKKPGASVKVSCKVSGYSLSKYDMSWVRKAPGKGLEWMGIIYTSGYTDYAQEFQGRVTMTEDTSTDTAYMELSSLRSEDTAVYYCATGNPYYTNGFNSWGQGTLVTVSSASTKGPSVFPLAPSSKSTSGGTAALGCLVKDYFPEPVTVSWNSGALTSGVATGPAVLQSSGLYSLSSVVTVPSSSLGTQTYICNVNHKPSNTKVDKRVEPKSCDKTHTCPPCPAPELLGGPSVFLFPPKPKDTLMISRTPEVTCVVVDVSHEDPEVKFNWYVDGVEVHNAKTKPREEQYNSTYRVVSVLTVLHQDWLNGKEYKCAVSNKALPAPIEKTISKAKGQPREPQVYTLPPSREEMTDNQVSLTCLVKGFYPSDIAVEWESNGQPENNYKTTPPVLMSDGSFFLASKLTVDKSRWQQGNVFSCSVMHEALHNHYTQKSLSLSPGK light 2: RIQMTQSPSSLSASVGDRVTITCQASQSPNNLLAWYQDKPGKAPKLLIYGASDLPSGVPSRFSGSGSGTDFTLTISSLQPEDFATYYCQNNYYVGPVSYAFGGGTKVEIKGQPKAAPSVTLFPPSSEELQANKATLVCYISDFYPGAVTVAWKADSSPVKAGVETTTPSKQSNNKYAAWSYLSLTPEQWKSHRSYSCQVTHEGSTVEKTVAPTEC
